Test results reported in the nanobody polyreactivity screen of Harvey et al. (2022).

Assay: yeast display, Sf9 membrane polyspecificity reagent, FACS + sequencing; frameworks hold sequencing errors
In short: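 Nanobodies came from a synthetic yeast display library in Saccharomyces cerevisiae BJ5465, induced with galactose for 36–48 hours and stained for 1 hour at 4 °C with 10% biotinylated, detergent-solubilized Sf9 membrane reagent. Cells were enriched on streptavidin microbeads and then FACS-sorted, with low and high (top ~1%) gates set on anti-HA fluorescence for expression and streptavidin fluorescence for reagent binding. Each polyreactivity label reflects the gate a clone came from. Genes were amplified by colony PCR, sequenced by MiSeq 2 × 250 and filtered by CDR length.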

| Sequence | polyreactivity (PSR sort gate) |
| --- | --- |
| QVQLVESGGGLVQAGGSLRLSCAASGYIFYTYAMGWYRQAPGKERELVAGINRGDSTNYADSVKGRFTISRDNAKNTVYLQMNSLKPEDTAVYYCNARQRTYYRTHRIRHKGNGYWGQGTQVTVSS | low polyreactivity |
| QVQLVESGGGLVQAGGSLRLSCAASGYILFAYAMGWYRQAPGKERELVATITTSGGITYYADSVKGRFTISRDNAKNTVYLQMNSLKPDDTAVYYCAAAEGCGLVTYDYWGQGTQVTVSS | low polyreactivity |
| QVQLVESGGGLVQAGGSLRLSCAASGYILRPYSKVWYRQSPGKERELLASISRSSGNTFYADSVKGRFTISRDNAKNSVYLEMNSLKPDDSAVYYCAKDRSQRDLVYFPRVIYRMDYWGQGTQVNVSS | high polyreactivity |
| QVQLVESGGGLVQAGGSLRLSCAASGYILRRNAMGWYRKAPGKERELVARINSSGGSTYYADSVKGRFTISRDNAKNTVYLQMNSLKPEDTAVYYCAKSYYRGRDYWGQGTQVTVSS | high polyreactivity |
| QVQLVESGGGLVQAGGSLRLSCAASGYILRSHAMGWYRQAPGKEWEFVAAITYSGGSTYYADSVKGRFTISRDNAKNTVYLQLNSLKPEVTAVYYCSKTTRYPRGYGYWGQGTQVTVSS | low polyreactivity |
| QVQLVESGGGLVQAGGSLRLSCAASGYILYINTMGWYRQAPGKERELVAAITYSGASTYYADSVKGRFTISRDNAKNTVYLQMNSLKPEDNGVYYCAADGYYGGYNYWGQGTQVTVSS | low polyreactivity |
| QVQLVESGGGLVQAGGSLRLSCAASGYIPYCYAMGWYRQAPGKERELVAAISSGGNTYYADSVKGRFTISRDNAKNTVYLQMNSLKPEDTAVYYCAAEFRNYIFHYKYNYWGQGTQVTVSS | high polyreactivity |
| QVQLVESGGGLVQAGGSLRLSCAASGYISGVYPMGWYRQAPGKERELVAAITKRGGNTYYADSVKGRFTISRDNAKNTVYLQMNSLKAEDTAVYYCAKKTAGHPWGPIYDYWGQGTQVTVSS | high polyreactivity |
| QVQLVESGGGLVQAGGSLRLSCAASGYIVRNAMGWYRQAPGKERQLVAAISRRGGSTYYADSVKGRFTISRDNAKNTVYLQLNSLKPEDTAVYYCAKDKVIPSFDADYYDWGQGTQVTVSS | high polyreactivity |
| QVQLVESGGGLVQAGGSLRLSCAASGYIYIRNAMGWYRQAPGKERELVAAISCTGGSTYYADSVKGRFTISRDNAKNTVYLQMKILKPEDTAVYYCNKYYRAWLLWDYGYWGQGTQVTVSS | high polyreactivity |
| QVQLVESGGGLVQAGGSLRLSCAASGYIYLPYAMGWYRQAPGKERELVAAIRWSGGSTYYADSVKGRFTISRDNAKNTVYLQMNSLKPEDTAVYYCAAYYVARDRRYPKAYSYEYWGQGTQVTVSS | high polyreactivity |
| QVQLVESGGGLVQAGGSLRLSCAASGYIYNGYAMGWYRQAPGKERELVAAIDWSGGSTYYADSVKGRFTISRDNAKNTVYLQMNSLKPEDTAVYYCNASEWLSASYYWGQGTQVTVSS | high polyreactivity |
| QVQLVESGGGLVQAGGSLRLSCAASGYLRVNAMGWYRQAPGTERELVAAITGNGGRTYYADSVKGRFTISRDNAKNTVYLQMNSLKPEDTAVYYCNIAGSSRSWFGSYYWGQGTQVTVSS | high polyreactivity |
| QVQLVESGGGLVQAGGSLRLSCAASGYNFKPNTMGWYRQAPGKERELVAAITRGGRTKYADSVKGRFTISRDNAKNTVYLQMNSLKPEDTAVYYCATRVHKSTDGYDYWGQGTQVTVSS | high polyreactivity |
| QVQLVESGGGLVQAGGSLRLSCAASGYNFKRYTMGWYRQAPGKERELVAAISGGDSTNYADSVKGRFTISRDNAKNTVYLHMNSLKPEDTAVYYCAAGGLTLWHGYILGYWGQGTQVTVSS | low polyreactivity |
| QVQLVESGGGLVQAGGSLRLSCAASGYNFSIYAMGWYRQAPGKERELVAAIRSDARTYYADSVKGRFTISRDNAKNTVYLQMNSLKPEDTAVYYCAADQYSYAANRPFYRGYYWGQGTQVTVSS | high polyreactivity |

| Sequence | polyreactivity (PSR sort gate) |
| --- | --- |
| QVQLVESGGGLVQAGGSLRLSCAASGYNFWYNGMGWYRQAPGKERELVAAITSSSGTTYYADSVKGRFTISRDNAKTTVYLQMNSLKPVDTSVYYFNAVLSSNTQCRYPGDYWGQGTQVTVSS | low polyreactivity |
| QVQLVESGGGLVQAGGSLRLSCAASGYSFRLYAMGWYRQAPAKEWELVAAISKSGGSTYYADSVKGRFTISRDNANNTVYLQMNRLKPEETADYYCAADGVARYQKGQYDYWGQGTQVTVSS | high polyreactivity |
| QVQLVESGGGLVQAGGSLRLSCAASGYSFSYNAMGWYRQAPGKERELVAAMSRTGGSTNYADSVKGRFTISRDHAKKTVDLQMNSLKPEDTAVYDCAKRYRYPSWGEYGYWGLGTQVTVSS | high polyreactivity |
| QVQLVESGGGLVQAGGSLRLSCAASGYSFVRNAMGWYIQAPGKERELVAAISGSGGSTYYADSVKGRFTISRDNAKNTVYLQMNSLKPEDTAVYYCAADYATVTWRGIAYDYWGQGTQVTVSS | low polyreactivity |
| QVQLVESGGGLVQAGGSLRLSCAASGYTFAANAMGWYRQSPGKERELVAAITSGGGSTYYADSVKGRFTISRDNAKNTVYLKMNSLNPEDTAVDYCAALQSHGVDFDNWGQGTQVTVSS | low polyreactivity |
| QVQLVESGGGLVQAGGSLRLSCAASGYTFAGYAMGWYRQAPGKERELVAAISQSGGRTYYADSVKGRFTISRDNAKNTVYLQMNSLKPEDTAVYYCNARAYYAGTYYVSRYYYWGQGTQVTVSS | high polyreactivity |
| QVQLVESGGGLVQAGGSLRLSCAASGYTFAGYAMGWYRQAPGKERELVAAISSSGGRTYYADSVKGRFTISRDNAKNTVDLQINSLKPEDTAVYYCAAYVWAYYVPYNYGYWGQGTQVTVSS | high polyreactivity |
| QVQLVESGGGLVQAGGSLRLSCAASGYTFASYDMGWYRQAPGKERELVAAIDWSGGSTYYADSVKGRFTISRDNAKNTVYLQMNSLKPEDTAVYYCAAERPWTYGSDGMDFWGQGTQVTVSS | low polyreactivity |
| QVQLVESGGGLVQAGGSLRLSCAASGYTFAWYAMGWYRQAPGKERELVAAITTSGGGTYYADSVKGRFTISRDNAKNTVYLQMNSLKPEDTAVYYCAADTWRDGDDYWGQGTQVTVSS | low polyreactivity |
| QVQLVESGGGLVQAGGSLRLSCAASGYTFDANDMGWYRQAPGTERELVARITWTGGNTYADSVKGRFTISRDNAKNTVYLQMNSLKPEDTAVYYCNAELGYVSSENYWGQGTQVTVTS | low polyreactivity |
| QVQLVESGGGLVQAGGSLRLSCAASGYTFDGYAMGWYRPAPGKERELVAAINSGGGTYYADSVKGRFTISRDYAKNTVYLQMNSLIPDDTAVYYCNKKAYRKTGLDYWGQGTQVTVSS | low polyreactivity |
| QVQLVESGGGLVQAGGSLRLSCAASGYTFDGYAMGWYRQAPGKERELVAVITKSGGRKYYADSVKGRFTISRDNAKNTVYLQMNSLKREVTAVYYCAADDSGTKDIVEGEYWGQGTQVTVSS | high polyreactivity |
| QVQLVESGGGLVQAGGSLRLSCAASGYTFDKYAMGWYRQAPGKERELVAAISSGGRTYYADSVKGRFTISRDNAKKTVYLQMNSLKPEDTAVYYCAKGSAGRGMDSWGQGTQVTVSS | low polyreactivity |
| QVQLVESGGGLVQAGGSLRLSCAASGYTFDPYDMGRYRQAPGKERELVASISWSGGDTYYADSVKGRFTISRDNAKNTVYLQMNSLKPEDTAVYYCAADRYIPRSIIMDYWGQGTQVTVSS | low polyreactivity |
| QVQLVESGGGLVQAGGSLRLSCAASGYTFDSYTMGWYRQAPGKERELFAAITRSGSSTYYADSVKGRFTISRDNAKNTVYLLMNSLKPEDTAVYYCAAGWRRAAGIQYWYGYWGQGTQVTVSS | high polyreactivity |
| QVQLVESGGGLVQAGGSLRLSCAASGYTFEFNVMGWYRQAPGKERELVASIRWGSTSYADSVKGRFTISRDNAKNTVYLQMNSLKPEDTAVYYCAAVTYDYWGQGTQVTVSS | low polyreactivity |
